The test system of the series is Saccharomyces cerevisiae. Kind of series: protein stability index of tFT-peptide fusion (C-terminal peptide) (PSI (0-1 scale)); higher = more stable (slower turnover). The following applies: temperature: 30 C. On the procedure: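 MPS profiling in S. cerevisiae of the yeast C-terminome library: the last 12 aa of each annotated ORF are fused to the C-terminus of a sfGFP-mCherry timer, after a GGGS linker. Cells are FACS-sorted into 8 mCherry/sfGFP bins and deep-sequenced. PSI runs from 0 (unstable) to 1 (stable); wild type and das1Δ backgrounds, two technical replicates each.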

[1] abbreviates: genetic background: das1 deletion.

± gives the standard deviation of the averaged measurements.

GKTAADNIAKLY [OSM1 C-terminal 12 aa]: the protein stability index was 0.6764 ± 0.004 under setting [1] and 0.619 ± 0.02 (genetic background: wild type).

Regarding GLCLCCTLDMLF [YDL012C C-terminal 12 aa], the protein stability index stood at 0.676 ± 0.014 under setting [1] and 0.6621 ± 0.0026 (genetic background: wild type).

GLLMAGKASEFQ [VMA16 C-terminal 12 aa]: the protein stability index by setting is: under setting [1], 0.694 ± 0.013; (genetic background: wild type) 0.72 ± 0.035.

With GMLYALYIVLQD [PMP3 C-terminal 12 aa], the protein stability index is 0.301 ± 0.0097 under setting [1] and 0.32 ± 0.0081 (genetic background: wild type).

As for GNAIREIKTYKY [GLY1 C-terminal 12 aa], the protein stability index by setting is: under setting [1], 0.687 ± 0.035; (genetic background: wild type) 0.658 ± 0.052.

GPSDDDEEDDKK [YGL242C C-terminal 12 aa] had a protein stability index under setting [1] of 0.643 ± 0.043 and a protein stability index (genetic background: wild type) of 0.675 ± 0.07.

With GPTIPISATIRE [RCK2 C-terminal 12 aa], the protein stability index under setting [1] is 0.65756 ± 0.00065 and the protein stability index (genetic background: wild type) amounted to 0.735 ± 0.021.

GPYWKRVLDFWC [GNP1 C-terminal 12 aa] had a protein stability index under setting [1] of 0.752 ± 0.012 and a protein stability index (genetic background: wild type) of 0.739 ± 0.029.

As for GPYWKRVVAFWC [AGP1 C-terminal 12 aa], the protein stability index under setting [1] was 0.734 ± 0.017 and the protein stability index (genetic background: wild type) was 0.549 ± 0.011.

Sequence “GRNKIYILFNVL [YMR030W-A C-terminal 12 aa]” registered a protein stability index under setting [1] of 0.6466 ± 0.0047 and a protein stability index (genetic background: wild type) of 0.116 ± 0.0082.

On to GRVDFQSTSKFT [AIM24 C-terminal 12 aa], for which the protein stability index reads like this: under setting [1], 0.702 ± 0.036; (genetic background: wild type) 0.7036 ± 0.0061.

For GTAASEPTPITK [ATP15 C-terminal 12 aa], the protein stability index by setting is: under setting [1], 0.7295 ± 0.0065; (genetic background: wild type) 0.681 ± 0.017.

GTKMEWFFDPLA [IPT1 C-terminal 12 aa]: the protein stability index by setting is: under setting [1], 0.732 ± 0.025; (genetic background: wild type) 0.701 ± 0.0081.

As to GTMKVDSWEPVD [ACH1 C-terminal 12 aa], the protein stability index is 0.7 ± 0.013 under setting [1] and 0.6829 ± 0.0049 (genetic background: wild type).

For the sequence GTVNYAGLHDEL [SED4 C-terminal 12 aa], the protein stability index was 0.687 ± 0.034 under setting [1] and 0.723 ± 0.044 (genetic background: wild type).

On to GVRKEFYELKRD [PRE7 C-terminal 12 aa], for which the protein stability index runs as follows: under setting [1], 0.69519 ± 5.6e-05; (genetic background: wild type) 0.693 ± 0.054.

Take GYKDRFGNLNVM [ATP7 C-terminal 12 aa]: the protein stability index is, setting by setting: under setting [1], 0.7037 ± 0.0041; (genetic background: wild type) 0.687 ± 0.02.

On to GYQRGLDEFNKY [MRX18 C-terminal 12 aa], for which the protein stability index under setting [1] is 0.7148 ± 0.0013 and the protein stability index (genetic background: wild type) worked out at 0.681 ± 0.04.

On to HEKPHTVSLRHK [CPR4 C-terminal 12 aa], for which the protein stability index came to 0.717 ± 0.013 under setting [1] and 0.721 ± 0.035 (genetic background: wild type).

Turning to HENSKCFTHYLI [AFR1 C-terminal 12 aa], the protein stability index turned out to be 0.684 ± 0.035 under setting [1] and 0.6605 ± 0.0065 (genetic background: wild type).

Take HERKRNKVLNTT [CMR3 C-terminal 12 aa]: the protein stability index worked out at 0.704 ± 0.021 under setting [1] and 0.661 ± 0.043 (genetic background: wild type).

As for HFYDRTNDLTNL [YNL144C C-terminal 12 aa], the protein stability index is, setting by setting: under setting [1], 0.736 ± 0.024; (genetic background: wild type) 0.68 ± 0.039.

Take “HIFEKKIFHTNL [YOL097W-A C-terminal 12 aa]”: the protein stability index runs as follows: under setting [1], 0.706 ± 0.018; (genetic background: wild type) 0.65 ± 0.027.

With HLAQMKMEQLLK [APQ12 C-terminal 12 aa], the protein stability index under setting [1] stood at 0.678 ± 0.015 and the protein stability index (genetic background: wild type) came to 0.67 ± 0.014.

As to “HLCWLRCACDGP [YLR154C-G C-terminal 12 aa]”, the protein stability index was found to be 0.716 ± 0.0083 under setting [1] and 0.699 ± 0.022 (genetic background: wild type).

Turning to HLSMVCDLELQL [NGL2 C-terminal 12 aa], the protein stability index was 0.738 ± 0.072 under setting [1] and 0.659 ± 0.045 (genetic background: wild type).

Regarding HNLESLVVAFNE [SPO16 C-terminal 12 aa], the protein stability index worked out at 0.6872 ± 0.003 under setting [1] and 0.717 ± 0.064 (genetic background: wild type).

As for HPTSAEELVTMR [GLR1 C-terminal 12 aa], the protein stability index was 0.7175 ± 0.007 under setting [1] and 0.693 ± 0.071 (genetic background: wild type).
